Experimental findings from IntAct's records for PubMed 16443932 are described below.

The experiment addresses cdc42_human CDC42 (UniProt P60953).
Sequence of UniProt P60953 (P60953 whole entry, looked up): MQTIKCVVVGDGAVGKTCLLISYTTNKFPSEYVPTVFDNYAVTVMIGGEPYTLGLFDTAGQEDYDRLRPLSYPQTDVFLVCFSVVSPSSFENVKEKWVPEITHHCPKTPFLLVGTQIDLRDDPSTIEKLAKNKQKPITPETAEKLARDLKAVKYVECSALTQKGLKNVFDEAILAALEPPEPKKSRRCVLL

As for “Phospholipid-transporting ATPase ABCA1 (Homo sapiens), O95477 K939M”, the “effect of a mutation on the interaction” value was “disrupting interaction strength”.
